What all share (type): cell-based
Test [1] concerns LNCaP C4-2 cells. In words: Western blotting of death receptors, caspases, Bid, cytochrome c, Akt. The note with it: LNCaP C4-2; for DR4 levels: FIG. 2B. As to the method:
(§1) LNCaP were obtained from American Type Culture Collection (Rockville, Md.) and LNCaP C4-2 cells were purchased from Urocor Inc., Oklahoma City, Okla. Cells were grown in RPMI 1640 medium supplemented with 10% (LNCaP) or 5% (LNCaP C4-2) fetal bovine serum (Hyclone, Logan, Utah) and grown in the presence of 5% CO2 at 37° C. Cells were treated with 10 μM Mifepristone (Sigma, St. Louis, Mo.) for three days or with increasing concentrations (from 200 ng/ml to 600 ng/ml) of TRAIL (Biomol Research Laboratories, Inc., Plymouth Meetings, Pa.) for varying time intervals 2, 4, 6, 8, 16, 20 and 24 hours (hr). Thus, for treatment with Mifepristone, cells were treated with Mifepristone for three days and then some cells treated (without washing) with TRAIL for indicated periods. Upon completion of the experiment, cells were harvested, and total proteins, cytosol or mitochondrial fractions were isolated as described below. At least three experiments were conducted with a minimum of four plates per treatment per experiment.
(§2) For experiments using inhibitors, the cells were pre-treated with increasing concentrations of the inhibitors (10 μM to 100 μM) for one hr and then with TRAIL. Caspase-8-specific (Z-IETD-FMK) and caspase-9-specific ([…]) inhibitors were purchased from Enzyme Systems Products, Livermore, Calif. The inhibitors were dissolved in DMSO; to limit cellular toxicity, care was taken not to exceed 0.2% DMSO in the culture medium. Appropriate controls included vehicle treated cells with or without the inhibitors.
(§3) Cells were harvested by trypsinization, washed in 1×PBS and cell pellets resuspended in lysis buffer (100 mM Tris-HCl pH 8.0, 0.1% Triton X 100 and protease inhibitor cocktail from Roche Diagnostic Corporation, Indianapolis, Ind.). Cells were incubated over ice for 30 min and centrifuged at 10,000 g at 4° C. for 10 min. The supernatant was collected and the protein concentration estimated using Bio-Rad protein reagent (Bio-Rad Laboratories, Hercules, Calif.).
(§4) Proteins (50 μg, unless stated otherwise) were separated on NuPAGE 10% Bis-Tris gels (Novex pre-cast mini gels, InVitrogen, Carlsbad, Calif.) at 100 volts for 1 hour in the presence of 1×MES-SDS running buffer (InVitrogen, Carlsbad, Calif.). Separated proteins were transferred to (PVDF) membranes (Bio-Rad Laboratories, Hercules, Calif.) at 42 volts for 2.5 hr using a Novex XCell II blotting apparatus in MES transfer buffer in the presence of NuPAGE antioxidant. Transfer of the proteins to the polyvinylidene difluoride (PVDF) membrane was confirmed by staining with Ponceau S (Sigma, St. Louis, Mo.). The blots were blocked in 5% non-fat dry milk in TBS, washed twice for 10 min each with TBS containing 0.1% Tween-20 and incubated for 2 hr at RT with primary antibody diluted in TBS containing 0.5% milk.
(§5) The following antibodies were used in the immunoblots: DR4, DR5 and cytochrome c (Imgenex, San Diego, Calif.), BID (BioSource International, Camarillo, Calif.), caspases-8, -9, and Akt (Cell Signaling Technology, Beverely, Mass.), caspase-3 (BD Pharmingen, San Diego, Calif.) Iκβ and XIAP (Cell Signaling Technology, Beverly, Mass.), cFLIP (StressGen Biotechnology Corp, Victoria, Canada), actin (Sigma Chemical Co., St. Louis, Mo.) and Cox II (Molecular Probes, Eugene, Oreg.). Immunoreactive bands were visualized using ECL detection system (Amersham, Pharmacia Biotech, Arlington Heights, Ill.) and signals were developed after exposure to X-ray film (X-Omat films, Eastman Kodak Company, Rochester, N.Y.).
(§6) For separation of mitochondrial and cytosolic fractions, cells were trypsinized, centrifuged at 600 g for 10 min at 4° C., washed twice in ice-cold PBS and re-suspended in buffer A (20 mM HEPES-KOH, pH 7.2, 10 mM KCl, 1.5 mM MgC12, 1 mM sodium-EDTA, 1 mM sodium-EGTA, 250 mM sucrose and protease inhibitor cocktail). Cells were homogenized on ice with a glass Dounce homogenizer (30 strokes) and were centrifuged at 750 g for 5 min at 4° C. […]

Test [2] deals with LNCaP cells. Described as above. The note with it: LNCaP; for DR4 levels / expression of DR5: FIG. 2A. As to the method:
as §1, §2, §3, §4, §5, §6

Test [3] relates to LNCaP C4-2 cells. The test can be described thus: Caspase-9 colorimetric activity assay. The note with it: FIG. 4B. Here is the method: as §1, with “experiment. As caspase-9 is a key protein in the formation of apoptosome, assays were performed to determine the activity of caspase-9. Caspase-9 activity was assayed using a colorimetric substrate, […] with a kit from Chemicon International, Inc. (Temecula, Calif.). Cleavage of the C-terminal peptide bond by the enzyme released p-nitroaniline, which was measured at 405 nm. Pure recombinant human caspase-9 was utilized as a positive control.” for “experiment.”

Test [4] deals with LNCaP cells. In words: Caspase-9 colorimetric activity assay. The note with it: FIG. 4A. As to the method:
as §1, with “experiment. As caspase-9 is a key protein in the formation of apoptosome, assays were performed to determine the activity of caspase-9. Caspase-9 activity was assayed using a colorimetric substrate, […] with a kit from Chemicon International, Inc. (Temecula, Calif.). Cleavage of the C-terminal peptide bond by the enzyme released p-nitroaniline, which was measured at 405 nm. Pure recombinant human caspase-9 was utilized as a positive control.” for “experiment.”

Another test has as its system PC3AR cells. In words: Induction of apoptosis / cell survival (FIG. 1E, 6A).

Experimental for PC3AR cells: PC3AR cells are a clonal cell line derived by stable transfection of PC3 with a full-length human AR cDNA (Dai, J. L., et al., Steroids, 61, 531-539, 1996). PC3Neo cells were stably transfected with neomycin vector alone. Cells were grown in RPMI 1640 with 5% FBS (Hyclone, Logan, Utah), 100 units/ml penicillin, 100 μg/ml streptomycin, 0.25 μg/ml fungizone and G418 (350 μg/ml) to select for neomycin-resistant cells. In experiments using antiandrogens, cells were maintained in 5% DCC stripped serum for at least 48 hr before treatment with hydroxyflutamide (Sigma Chemical Co., St. Louis, Mo.). The medium and all the drugs were replaced every two days. Cells were treated with 200 ng/ml, 400 ng/ml or 600 ng/ml of TRAIL (Biomol Research Laboratories, Inc, Plymouth Meeting, Pa.) for 2, 4, 6, 8, 16 and 20 hr. Cells were treated with 5 μM hydroxyflutamide for 5 days before the commencement of treatment with 400 ng/ml TRAIL.
Two methods were used to measure induction of apoptosis by drug treatment: the MTT assay and the Apoptosense assay. The MTT assay measures mitochondrial enzyme activity and is indicative of the number of surviving cells. The Apoptosense assay is an ELISA, which utilizes M30 antibody to recognize the C-terminal domain (amino acids 387-396) of cytokeratin 18 that is exposed in apoptotic cells after cleavage by caspases.
Cells were seeded in 96-well plates (6000 cells/well) and treatment was started 24 hr after seeding the cells. After completion of the treatment, cells were incubated at 37° C. with the MTT reagent for 3 hr and processed according to manufacturers instructions (Promega Corporation, Madison, Wis.). Color development was measured at 490 nm on a Spectra MAX 340 microplate reader (Molecular Devices, Menlo Park, Calif.).

In the case of `CC#C[C@]1(O)CC[C@H]2[C@@H]3CCC4=CC(=O)CCC4=C3[C@@H](c3ccc(N(C)C)cc3)C[C@@]21C` [Mifepristone], the DR4 levels result in the test with LNCaP C4-2 cells [1] and in the test with LNCaP cells [2] was “did not show significant changes” each time. The “activation of procaspase-8” value in the test on LNCaP C4-2 cells [1] (FIG. 3B) and in the test on LNCaP cells [2] (FIG. 3A) was “small increase in the activation of caspase-8” in each case. For the same molecule, the “induction of caspase-3” value with LNCaP C4-2 cells [1] (FIG. 3D) is “nor is it effective in inducing caspase-3”. Moreover, the “expression of DR5” value in the test on LNCaP cells [2] is “significant increase”. Besides, the “activation of caspase-3” value in the test on LNCaP cells [2] (FIG. 3C) is given as “activates caspase-3”. Besides, the “activation of caspase-7 in TRAIL-treated cells after pre-treatment with Mifepristone” value in the test with LNCaP cells [2] (Mifepristone pre-treatment, then TRAIL, FIG. 3C) was “activated caspase-7 by 4 hr”. Besides, the caspase-9 activity result in the test with LNCaP C4-2 cells [3] and in the test with LNCaP cells [4] was “induced caspase-9 activity” in each case.

B1: Tumor necrosis factor α—Related Apoptosis Inducing Ligand (protein, UniProt P50591 1-281, looked up)
Tumor necrosis factor ligand …: MAMMEVQGGPSLGQTCVLIVIFTVLLQSLCVAVTYVYFTNELKQMQDKYSKSGIACFLKEDDSYWDPNDEESMNSPCWQVKWQLRQLVRKMILRTSEETISTVQEKQQNISPLVRERGPQRVAAHITGTRGRSNTLSSPNSKNEKALGRKINSWESSRSGHSFLSNLHLRNGELVIHEKGFYYIYSQTYFRFQEEIKENTKNDKQMVQYIYKYTSYPDPILLMKSARNSCWSKDAEYGLYSIYQGGIFELKENDRIFVSVTNEHLIDMDHEASFFGAFLVG
notes: 281 amino acid type II transmembrane protein of the tumor necrosis factor α family; purchased from Biomol
Regarding B1, the “apoptotic response at 200 ng/ml” value with PC3AR cells (200 ng/ml TRAIL) is listed as “lower response”. This molecule also displayed an apoptosis in the test on PC3AR cells (400 ng/ml TRAIL, by 20 hr, FIG. 1E) of roughly 41%. In addition, the “apoptosis at higher dose” value in the test on PC3AR cells (600 ng/ml TRAIL) is “did not significantly increase apoptosis”. Further, the DR4 levels entry with LNCaP C4-2 cells [1] is given as “did not show significant changes”. In addition, the “cytochrome c levels in cytosol” value with LNCaP C4-2 cells [1] (FIG. 5B) is on record as “increased cytochrome c levels in cytosol within 15 min”. Besides, the “phosphorylated Akt” value in the test with LNCaP cells [2] (15 min, FIG. 8) is recorded as “slightly decreased phosphorylated Akt”. Besides, in the test with LNCaP cells [2], the DR4 levels entry is listed as “did not show significant changes” and the “expression of DR5” value is listed as “did not increase significantly”. For the same molecule, in the test on LNCaP cells [2] (FIG. 3A), the “activation of procaspase-8” value is given as “decrease in the 57 KDa procaspase-8 protein as early as 2 hr” and the “truncated Bid (tBid)” value is “tBid was noted by 2 hr”. Moreover, in the test on LNCaP cells [2] (FIG. 3C), the “activation of caspase-3” value is reported as “yielded cleaved 17 KDa caspase-3 product by 2 hr” and the “activation of caspase-7” value is reported as “activated caspase-7 by 20 hr”. For the same molecule, the “cytochrome c levels in cytosol” value with LNCaP cells [2] (FIG. 5A) is listed as “increased cytochrome c levels in cytosol within 15 min”. For the same molecule, the caspase-9 activity result in the test on LNCaP C4-2 cells [3] is recorded as “induced caspase-9 activity”. For the same molecule, the caspase-9 activity result in the test with LNCaP cells [4] is “induced caspase-9 activity”.
